{
  "source": "patent US20230399393A1",
  "about": "“METHODS TO EXTEND HEALTH-SPAN AND TREAT AGE-RELATED DISEASES” (National University of Singapore, priority 2020, published 2023)",
  "key": {"C57Bl/6J mice [1]": {"tested_on": "C57Bl/6J mice", "experiment": "Grip strength using a grip strength meter", "format": "in vivo, mouse", "details": "at 110 weeks; vs IgG control antibody", "description": "(§1) C57Bl/6J mice are randomised to receive either X203 or IgG control antibody at a dose of 40m/kg via IP injection every 3 weeks from age 55 weeks to age 110 weeks.\nAt 110 weeks, mice are analysed for grip strength using a grip strength meter. Reduced grip strength is a robust marker of ageing-associated frailty in mice (see Fischer et al., Aging (2016) 8: 2370-2391, hereby incorporated by reference in its entirety).\nMice grip a wire mesh attached to the meter with both forelimbs, and are then gently pulled by the tail in a horizontal plane parallel to the base plate of the meter. Grip strength is recorded as the maximum force registered."}, "C57Bl/6J mice [2]": {"tested_on": "C57Bl/6J mice", "experiment": "Analysis of geropathological lesions in tissue sections", "format": "in vivo, mouse", "details": "at 110 weeks; heart, lung, liver, spleen, kidney, skeletal muscle; vs IgG control antibody", "description": "as §1\nAt 110 weeks, mice are euthanized, sections are prepared from heart, lung, liver, spleen, kidney and skeletal muscle tissues, subjected to hematoxylin and eosin or Masson's trichrome staining and analysed by light microscopy. Tissue sections are evaluated for ageing-associated lesions as described in Snider et al., Geroscience (2019) 40: 97-103 and Snyder et al., Geroscience (2019) 41: 455-465 (both hereby incorporated by reference in their entirety). Analysis is performed by a veterinary pathologist blinded to treatment group."}, "C57Bl/6J mice [3]": {"tested_on": "C57Bl/6J mice", "experiment": "Renal function: blood urea nitrogen (BUN) and creatinine", "format": "in vivo, mouse", "description": "C57Bl/6J mice are randomised to receive either X203 or IgG control antibody at a dose of 40 mg/kg via IP injection every 3 weeks from age 55 weeks to age 110 weeks, and renal function was evaluated by analysis of serum levels of blood urea nitrogen (BUN) and creatinine using the Urea Assay Kit (ab83362, Abcam) and Creatinine Assay Kit (ab65340, Abcam) in accordance with the manufacturer's instructions.\nLevels of BUN and serum creatinine was also analysed in 12 week-old male and female C57Bl/6J mice, in order to determine baseline levels. Data were analysed by 2-way ANOVA."}, "AML12": {"tested_on": "AML12", "experiment": "Senescence reversal experiment, qPCR at day 10", "format": "cell-based, mouse", "details": "2 μg/ml for 72 hours after 7 days senescence induction; vs IgG", "description": "FIG. 25. (25A) Schematic of senescence reversal experiment for data shown in B-D. Senescent AML12 were generated for 7 days as described above. IgG/X203/X209 (2 μg/ml) was added into the cultures at the end of senescence induction period for 72 hours; cells were harvested at day 10 for RNA extraction and subsequent qPCR experiments. Relative mRNA expression of (25B) Cdkn1a (p21), (25C) Il1β, and (25D) Il11.\nBriefly, senescent AML12 were generated for 7 days as described above, but IgG/X203/X209 (2 μg/ml) was added into the cultures at the end of senescence induction period for 72 hours.\nSenescent AML12 were generated by treating the cells with a sub-lethal concentration of H2O2 (0.75 mM) for 1 hour, followed by 23 hours recovery per day, for 7 days as described (Tripathi, Yen, and Singh 2020, STAR Protocols 1 (2): 100064). For prevention study, AML12 cells were treated with 2 ug/ml of either IgG or X209 during the recovery period of the senescence induction stage (from day 1 to day 7); cells were harvested for total RNA collection at day 10. For reversal study, senescence was first induced for seven days followed by 2 ug/ml of IgG, X203, or X209 treatment for 3 days; cells were harvested for total RNA collection at day 10.\nTotal RNA was extracted from AML12 or snap-frozen tissues using Trizol (Invitrogen) and RNeasy Mini Kit (Qiagen). […] using iScript cDNA Synthesis Kit (Biorad). Gene expression analysis was performed on duplicate samples with either TaqMan (Applied Biosystems) for Il11 (Mm00434162) or fast SYBR green (Qiagen) technology using StepOnePlus™ (Applied Biosystem) for Ccl2, Ccl5, Gapdh, Il1β, Il6, Il8, p16, p21, Tnfα, over 40 cycles. Expression data were normalized to GAPDH mRNA expression and fold change was calculated using 2^−ΔΔct method."}, "C57Bl/6J mice [4]": {"tested_on": "C57Bl/6J mice", "experiment": "Serum IL-6 levels of old mice (ELISA)", "format": "in vivo, mouse", "details": "old (110 week-old) male and female mice; vs IgG isotype control", "description": "FIG. 51. A neutralizing IL-11 antibody reduces the levels of IL-6 protein in the serum of old mice. Graphs showing the effects of treatment with anti-IL11 (X203) or IgG isotype control on serum IL-6 levels levels of old (110 week-old) male and female mice. Dotted lines indicate the mean serum IL-6 levels of 12 week-old control male (0.159 μg/ml) and female (0.236 μg/ml) mice. Data were analyzed by 2-way ANOVA.\nIL-6 is strongly linked with ageing (Maggio et al. 2006, J Gerontol A Biol Sci Med Sci. 61(6): 575-584; Ershler and Keller 2000, Annual Review of Medicine 51: 245-70).\n(§2) Male and female C57Bl/6J mice aged 46 weeks were purchased from the Jackson Laboratory. Mice were randomised on a 1:1 basis to receive either 40 mg/kg of X203 or an isotype control IgG antibody (11E10), every 3 weeks (IP), starting from 55 weeks of age. Mice were sacrificed at 110 weeks of age for blood and tissues collection. 12 weeks old male and female C57Bl/6J mice that were used as control were purchased from Invivos (Singapore).\nThe levels of IL6 in mouse serum were quantified using Mouse IL-6 Quantikine ELISA Kit (M6000B; R&D Systems)."}, "C57Bl/6J mice [5]": {"tested_on": "C57Bl/6J mice", "experiment": "In vivo administration of anti-IL11 (X203) to old mice, summary of multi-morbidity", "design": "species or system mouse", "details": "vs IgG", "description": "Furthermore, the data disclose that: • Administration of MEK1/2 inhibitor U0126 to cells stimulated with IL11 prevents ERK-mediated inactivation of LKB1/AMPK that stops IL11-induced mTORC1/P70S6K activation. • Administration of anti-IL11 (X203) vs IgG control to mice aged 55-110 weeks old results in lesser ERK activation, restored LKB1/AMPK activity and reduced mTORC1 activity and senescence markers (p16/p21). This is seen across tissues. • Mice deleted for IL11RA1 at 110 weeks old mirror the effects seen with X203 administration and have a signaling profile more similar to young mice, across tissues. • Administration of X203 vs IgG to old mice improves multi-morbidity with better serum levels of fats, glucose, lesser tissue fibrosis, better kidney function, reduced tissue inflammation, reduced obesity and lesser frailty. • Administration of X203 vs IgG to old mice improves markers of inflammation (CCL2, CCL5, TNFa, IL1b, IL11 and IL6)—an altered intercellular communication Hallmark of ageing—across tissues, including liver, kidney and skeletal muscle.\nas §2, with “12 weeks old male and female C57Bl/6J mice that were used as control were purchased from Invivos (Singapore).” left out"}},
  "data": [
    {"molecule": "X203: mouse anti-mouse IL-11 IgG antagonist antibody; VH SEQ ID NO:22, VL SEQ ID NO:23 (antibody, V domains shown) VH: EVQLQQSGPELVKPGASVKIPCKASGYTFTDYNMDWVKQSHGKSLEWIGDINPHNGGPIYNQKFTGKATLTVDKSSSTAYMELRSLTSEDTAVYYCARGELGHWYFDVWGTGTTVTVSS VL: DIVLTQSPASLAVSLGQRATISCRASKSVSTSGYSYIHWYQQKPGQPPKLLIYLASNLDSGVPARFSGSGSGTDFTLNIHPVEEEDAATYYCQHSRDLPPTFGGGTKLEIK", "values": [
      {"measurement": "grip strength", "setting": "C57Bl/6J mice [1]", "result": "greater"},
      {"measurement": "geropathology lesions", "setting": "C57Bl/6J mice [2]", "result": "fewer, smaller and/or less developed"},
      {"measurement": "reduction in creatinine levels relative to IgG control", "setting": "C57Bl/6J mice [3]; female mice, baseline 12 week old female 0.77 mg/dl", "result": 43, "unit": "%"},
      {"measurement": "reduction in BUN levels relative to IgG control", "setting": "C57Bl/6J mice [3]; female mice, baseline mean BUN of 12 week old female mice 31.8 mg/dl", "result": 42, "unit": "%"},
      {"measurement": "reduction in creatinine levels relative to IgG control", "setting": "C57Bl/6J mice [3]; male mice, baseline 12 week old male 0.92 mg/dl", "result": 60, "unit": "%"},
      {"measurement": "reduction in BUN levels relative to IgG control", "setting": "C57Bl/6J mice [3]; male mice, baseline mean BUN of 12 week old male mice 51.3 mg/dl", "result": 79, "unit": "%"},
      {"measurement": "renal function", "setting": "C57Bl/6J mice [3]; vs IgG control antibody", "result": "improved"},
      {"measurement": "inflammation marker IL-1 b", "setting": "AML12", "result": "significantly reduce"},
      {"measurement": "inflammation marker IL-11", "setting": "AML12", "result": "significantly reduce"},
      {"measurement": "senescence marker p21", "setting": "AML12", "result": "significantly reduce"},
      {"measurement": "levels of IL-6 protein in the serum", "setting": "C57Bl/6J mice [4]", "result": "significantly reduces"},
      {"measurement": "multi-morbidity (serum levels of fats, glucose, tissue fibrosis, kidney function, tissue inflammation, obesity, frailty)", "setting": "C57Bl/6J mice [5]", "result": "improves"}
    ]}
  ]
}
